{
  "source": "the DeepSol protein solubility set",
  "data": [
    {"assay": "soluble on expression in E. coli; label from the status in PepcDB or PDB records", "values": [
      {"sequence": "MGSDKIHHHHHHMKFSINRQKTIEIIGEYSNILKDNPVKPSLAGLFIQAKNNQVVFKGANTEIELIRYANCEIESEGQVLIKPALLLEYIKLLEGENINFEKKDGYLIVNNAEFSILDDNTYPELTEIIPIVIASENTVKFTMSLEKVKFLTNSSASTDTLFNSIKMIFKDNVLELVSTDSFRLIYMKKELNNMINKDVLVPGDSIAVLYKIFKDLDEEFSLAASDDKLIVTWKDAYFTCKLLSLSFPDFRPLINNTNHDKRFEFNRDELNLALKKVISVTKNSSDSKNVATFNFKGNQLLISGVSANAKINQKVNMIKTGEDLKLGMNCKYIKDFIDNVDKNIIIDATNSSSMLRFMEEGNENYIYLIMPVNIRV", "soluble on expression in E. coli": "not soluble"},
      {"sequence": "LMTIKCLLLAVMVCPFFITACSDKYSEQDRVQAINNADAPFGAGLLTFQISSDTQLNSLNEISNSCALLFLQASDKNTLQDIMNNPVLIKQFFIGTGKVDGILKVDKYVAMPGQEITLHIDRNEGTKYVGVVAGYYPFPGKQHMLLLDIPVDVVEEGWWNKSLHASLLPLSKKISMGKESISMK", "soluble on expression in E. coli": "not soluble"},
      {"sequence": "AGTKLSLMPWFHGKITREQAERLLYPPETGLFLVRESTNYPGDYTLCVSSDGKVEHYRIMYHASKLSIDEEVYFENLMQLVEHYTSDADGLCTRLIKPKVMEGTVA", "soluble on expression in E. coli": "soluble"},
      {"sequence": "MNTSELETLIRTILSEQLTTPAQTPVQPQGKGIFQSVSEAIDAAHQAFLRYQQCPLKTRSAIISAMRQELTPLLAPLAEESANETGMGNKEDKFLKNKAALDNTPGVEDLTTTALTGDGGMVLFEYSPFGVIGSVAPSTNPTETIINNSISMLAAGNSIYFSPHPGAKKVSLKLISLIEEIAFRCCGIRNLVVTVAEPTFEATQQMMAHPRIAVLAITGGPGIVAMGMKSGKKVIGAGAGNPPCIVDETADLVKAAEDIINGASFDYNLPCIAEKSLIVVESVAERLVQQMQTFGALLLSPADTDKLRAVCLPEGQANKKLVGKSPSAMLEAAGIAVPAKAPRLLIALVNADDPWVTSEQLMPMLPVVKVSDFDSALALALKVEEGLHHTAIMHSQNVSRLNLAARTLQTSIFVKNGPSYAGIGVGGEGFTTFTIATPTGEGTTSARTFARSRRCVLTNGFSIR", "soluble on expression in E. coli": "not soluble"},
      {"sequence": "MGSDKIHHHHHHMKKLYILAIAIAVTTFSCKKNKEDEPAPSGSEQAKVVENYANIVYATYDDALITAKNLRAKAADFVASPSEAGLEEVRAAYIASRTPYIQSEAFRFYSGPIDQDLGGGLTIESSINSWPLEEVYIDYVVGDANAGIINDVAHFPTIDKNVILENNQKEGAGENSVSSGYHAVEFLLWGQDLSETGPGDRKYTDYLVNSDDATNLNQARRGQYLLACIDLIIDNLQTLKEAWKSGNASNYRAGFIADPKGSIGNFLKGVIGYADDELSVERMQVALDTEGDAERQEQEQSCFSDQTYNDIILGQKGIKNVYVGEYVRIDGTIVSGMSVSDLVKAADPKLDSTVRAKIYDTDIKVAAIHAPFDNEILTANTAGTIRVQNAINALHVEAAQYKNAANKIGYLY", "soluble on expression in E. coli": "not soluble"},
      {"sequence": "MDQIFNKVGSYWLGQKANKQFDSVGNDLNSVSTSIEGGTKWLVNKIKGKMQKPLPELLKEYDLPIGIFPGDATNYEFDEETKKLTVLIPSICEVGYKDSSVLKFTTTVTGHLEKGKLTDVEGIKTKVMIWVKVTSISTDASKVYFTAGMKKSRSRDAYEVQRNGLRVDKF", "soluble on expression in E. coli": "soluble"},
      {"sequence": "MNAAQVQALIRMGLPMAEDIDFRVERLDERHALARIPFHGKLVRPGGTLSGPTIMALADAAMYAVILGRLGAVEMAVTSNLNINFLSKPRPEDLLAEASILKLGRRQVVCEVGVFSQSNEEDLVAHVTGTYALPLLEHHHHHH", "soluble on expression in E. coli": "soluble"},
      {"sequence": "MSLIQGKAIIIGGGPCGLSAAIHLKQIGIDALVIEKGNVVNSIYNYPTHQTFFSSSEKLEIGDVAFITENRKPVRIQALSYYREVVKRKNIRVNAFEMVRKVTKTQNNTFVIETSKETYTTPYCIIATGYYDHPNYMGVPGEDLPKVFHYFKEGHPYFDKDVVVIGGKNSSVDAALELVKSGARVTVLYRGNEYSPSIKPWILPEFEALVRNGTIRMEFGACVEKITENEVVFRSGEKELITIKNDFVFAMTGYHPDHQFLEKIGVEIDKETGRPFFNEETMETNVEGVFIAGVIAAGNNANEIFIENGRFHGGHIAAEIAKRENHEGHHHHHH", "soluble on expression in E. coli": "soluble"},
      {"sequence": "MAHHHHHHMTDPTRRDPTEFLRVLRRMSNTTSWQKAMIFASKGRMVGYRLTLEHYNTVLYSQSMWGRALEMIKVIRAMQQDGVQPNGATYYYIVNGMANAEHGYNYDFNINHRLEKLQHWRVALNALQACEANGFDSTDTMHNSVIVTMTIPGMNHWREALQVLKKIIDEDRQLHPNMVRFLHDCLIRNYRPREASDLLRCAAERGVKGYETAWETDVYKGKPTDAQLEASQAEAAVTDAAGTECVAGSSGALSSSTSDCKKAAHNSAQASAAATLMALQLRGDQTLPPPQMRSALQEEMERSITAERQALRPFTAGLHYTEMRSVFRPRVHRQLWYQWHQIANRYRPTASLKRRQLAPRDSPTGIPAWNRL", "soluble on expression in E. coli": "not soluble"},
      {"sequence": "MKPRETKLLGSIREAIEKTGLKDGMTISFHHHFREGDYVMNLVLAEIAAMGLKNISIAPSSIANVHEPLIEHIKNGVVTNITSSGLRDKVGAAISAGIMENPVVIRSHGGRARAVAAGDIHIDVAFLGAPSSDAYGNANGTKGKATCGSLGYAMVDAKYADQVVIITDTLVPYPNTPISIPQTDVDYVVEIDAIGDPDGIAKGATRFTKNPKELLIAEYAAKIITHSPYYKEGFSFQTGTGGSSLAVTRFMREQMLKDGIKASFALGGITNAMVELLEEGLVEKIIDVQDFDHPSAISLGENANHYEIDANMYASPLSKGAVINQLDTAILSALEVDTDFNVNVITGSDGVIRGASGGHSDTSMACKMSLVIAPLVRGRIPTIVEQVNTVVTPGTSVDVVVTEVGIAINPKRTDLIDCFKTLDVPQFTLEELKDKAYNIVGTPEPIKYGDKVVALIEYRDGSLIDVVRNVLEHHHHHH", "soluble on expression in E. coli": "soluble"},
      {"sequence": "MGDDEARSWIRGDETAKQMLSRVLKDRAFLLIPPLHRVPLRAGNVVEITGASTSAKTQILIQAAISCILPKTWNGIHYGGLGKLVLFLDLDCRFDVLRLSQMLKHRLLQANWLGNGAWWQLEESNVKSCKSAEEKTKTVFDEELYASCMKRFLYVRCYDSLELLSSLKTLHYRIQQQEACGSQVGVLMIDSIGAFHWTDRLSSSLALETHNRKSLSLTNVVETIVQELKKLLLVHSLVVLATKGTIYEEKYPANENNRKVSSNDHFSGNVASKAQQPPFREFMPSSWQAFVTHKIIIRKSADYQSLQTGQQNLLAYSLEWLQPQLSRIDRFIVDDVRKLTTIKPFYSKLLLIYIVIPASSSHAVWYCHCLVT", "soluble on expression in E. coli": "soluble"},
      {"sequence": "MYPYIKLIATLFRAKNSPQMNLDEKSVLNCRAGLTDIDVFVELNNARHLTYMEFGRWDFAQRTGLLSLMRKNKWAFAVGGASVRYRRRIAFWKKFTVTTQVICHDGRWFYFLQETHIKDKVCSSALIKAAFTSKQGLVPATEVLAAYGKTTPNFDVPDWVNAWIDAESQRPWPLEHHHHHH", "soluble on expression in E. coli": "soluble"},
      {"sequence": "DQQLVDQLSQLKLNVKMLDNRAGENGVDCAALGADWASCNRVLFTLSNDGQAIDGKDWVIYFHSPRQTLRVDNDQFKIAHLTGDLYKLEPTAKFSGFPAGKAVEIPVVAEYWQLFRNDFLPRWYATSGDAKPKMLANTDTENLDQFVAPFTGDQWKRTKDDKNILMTPASRFVSNADLQTLPAGALRGKIVPTPMQVKVHAQDADLRKGVALDLSTLVKPAADVVSQRFALLGVPVQTNGYPIKTDIQPGKFKGAMAVSGAYELKIGKKEAQVIGFDQAGVFYGLQSILSLVPSDGSGKIATLDASDAPRFPYRGIFLDVARNFHKKDAVLRLLDQMAAYKLNKFHFHLSDDEGWRIEIPGLPELTEVGGQRCHDLSETTCLLPQYGQGPDVYGGFFSRQDYIDIIKYAQARQIEVIPEIDMPAHARAAVVSMEARYKKLHAAGKEQEANEFRLVDQTDTSNTTSVQFFNRQSYLNPCLDSSQRFVDKVIGEIAQMHKEAGQPIKTWHFGGDDAKNIRLGAGYTDKAKPEPGKGIIDQSNEDKPWAKSQVCQTMIKEGKVADMEHLPSYFGQEVSKLVKAHGIDRMQAWQDGLKDAESSKAFATSRVGVNFWDTLYWGGFDSVNDWANKGYEVVVSNPDYVYMDFPYEVNPDERGYYWGTRFSDERKVFSFAPDNMPQNAETSVDRDGNHFNAKSDKPWPGAYGLSAQLWSETQRTDPQMEYMIFPRALSVAERSWHRAGWEQDYRAGREYKGGETHFVDTQALEKDWLRFANILGQRELAKLDKGGVAYRLPVPGARVAGGKLEANIALPGLGIEYSTDGGKQWQRYDAKAKPAVSGEVQVRSVSPDGKRYSRAEKV", "soluble on expression in E. coli": "soluble"},
      {"sequence": "GMFVSDQAEAKGFIEDSSLDLLLRNYYFNRDGKSGSGDRVDWTQGFLTTYESGFTQGTVGFGVDAFGYLGLKLDGTSDKTGTGNLPVMNDGKPRDDYSRAGGAVKVRISKTMLKWGEMQPTAPVFAAGGSRLFPQTATGFQLQSSEFEGLDLEAGHFTEGKEPTTVKSRGELYATYAGETAKSADFIGGRYAITDNLSASLYGAELEDIYRQYYLNSNYTIPLASDQSLGFDFNIYRTNDEGKAKAGDISNTTWSLAAAYTLDAHTFTLAYQKVHGDQPFDYIGFGRNGSGAGGDSIFLANSVQYSDFNGPGEKSWQARYDLNLASYGVPGLTFMVRYINGKDIDGTKMSDNNVGYKNYGYGEDGKHHETNLEAKYVVQSGPAKDLSFRIRQAWHRANADQGEGDQNEFRLIVDYPLSILHHHHHHHH", "soluble on expression in E. coli": "soluble"},
      {"sequence": "MSLKKLILTTAALALSAGMAMADTVRMGTEGAYPPYNFINDAGEVDGFERELGDELCKRAGLTCEWVKNDWDSIIPNLVSGNYDTIIAGMSITDERDEVIDFTQNYIPPTASSYVATSDGADLSGIVAAQTATIQAGYIAESGATLVEFATPEETIAAVRNGEADAVFADRDYLVPIVAESGGELMFVGDDVPLGGGVGMGLRESDGELRGKFDAAITSMKEDGTLNTMIKKWFGEDAAVYEEGHHHHHH", "soluble on expression in E. coli": "soluble"},
      {"sequence": "MGSDKIHHHHHHMSRVACAYIIRKATGEHECCETLEEHVQRSLEVWLGRLKKCYSSAVNRIIYSQGSQTLASVLGDPVAVAIVLHDIGKAVPAYQKKRIMRGRVQYRHELVSGALSLLAIEKAADMAGIGRNDRGLYVFEVPLAVMMHHESISMGVLAGELGERFVTLSVASLMLEDYYDGELWGLERLARTVKNMGAVGDAVVDVLKILSGSPPSRKEVLIALGRLKAYSLSGDTLSRLSARARVAGILHPLVVADSIAANEGRKRCNGDGGTWIVKRALGRDSQEPAEPCLS", "soluble on expression in E. coli": "not soluble"},
      {"sequence": "MNTYAQESKLRLKTKIGADGRCVIEDNFFTPPFKLMAPFYPKDDLAEIMLLAVSPGMMRGDAQDVQLNIGPNCKLRITSQSFEKIHNTEDGFASRDMHIVVGENAFLDFAPFPLIPFENAHFKGNTTISLRSSSQLLYSEIIVAGRVARNELFKFNRLHTKISILQDEKPIYYDNTILDPKTTDLNNMCMFDGYTHYLNLVLVNCPIELSGVRECIEESEGVDGAVSETASSHLCVKALAKGSEPLLHLREKIARLVTQTTTQKVLEHHHHHH", "soluble on expression in E. coli": "soluble"},
      {"sequence": "MNIMSESIPQFYKRIQRCDPQLGTTYSKENPYFNVLSRQCNFGTVQFSYRDFYKVTLIIGVGKLYYADKWILVNRPAMLFSNPLVPYAWESISEEQKGMFCIFNEQFVQSEEKNGSLANTPLFKVTGDKVFFLNDAQVAKVMDIYTQMQEENQSDYANKHDVLRCYLHLLIHTALKMQESNKYESHPNASQRITELFIELLDRQFPVDYPHSVLSLRTPADYANRLSIHVNHLNKVVKDTTGKTTSTMIAERIIKECTQYLLHSNFSISEIAYSLGFENMAYFSKFYRKHTGKSPSEIREQQLFDLCK", "soluble on expression in E. coli": "not soluble"}
    ]}
  ]
}
